# ± gives the uncertainty stated by the source.
# Test: amyloid nucleation score (Sup35N fusion, yeast selection) (log enrichment); library NNK1; higher = more nucleation; inactive = no reads after selection
# Method in brief: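 The nucleation score is a DiMSum log enrichment of output over input reads, centred on the mode score of non-aggregating sequences. Sequences under 100 input reads were excluded, and reads came from Illumina sequencing of plasmid inserts. Psi-negative yeast expressing Sup35N fused to peptides of 20 random codons were induced with 100 μM copper sulfate for 24 hours and grown 7 days at 30°C on medium lacking adenine and uracil. Random libraries had three technical output replicates.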
row,Substance,amyloid nucleation score
1,DLHRRSVCCFENVFVITAYY,2.06 ± 0.27
2,DLKVNCVGEWADRLFMFSFG,0.683 ± 0.84
3,DLLLRSSTSTVVCIMNRTTS,3.94 ± 0.076
4,DLLVNCDAVKLVYLSGYVDV,0.342 ± 0.23
5,DLNRSALSRDDGNSVILKCG,0.653 ± 0.68
6,DLRNMKVNTQDVSFLSPRGG,0.208 ± 0.29
7,DLVTSYWKIEGPILRSGGNM,-0.563 ± 0.49
8,DLVYVSRLYISVNRYPSWFV,-0.462 ± 0.51
9,DMFCQAI,0.773 ± 0.39
10,DMKDDRRSFTKGP,-0.103 ± 0.69
11,DMTNAVCTRLNFIRLSTLMK,0.041 ± 0.32
12,DMYYNQTRVQKPPVMPQSLK,-0.667 ± 0.78
13,DNAYPHPCSIYYNNNQFLRF,6.734 ± 0.054
14,DNLLEAASNNIIEYVCSPLE,0.501 ± 0.44
15,DNRSFFWNL,2.22 ± 0.13
16,DPSPLR,-0.827 ± 2.4
17,DPYTHYVAMRINCYWEMCAL,-1.06 ± 0.93
18,DQFCDMPTWVLVMYKSRDFL,0.862 ± 0.55
19,DQSWSREWPCVLVHHVHYKD,0.626 ± 0.28
20,DQVTYRPWLRELRRQAMCLQ,0.027 ± 1.7
21,DRDASSLGFIFFFGCLEGLT,-0.93 ± 0.76
22,DRHRLPILVFLITNRTQRMV,-0.098 ± 1.3
23,DRLVDTNYRASGYPVRYMVS,-1.31 ± 0.78
24,DRRIEYVVDLGSSCGMTTHV,0.049 ± 0.41
25,DRWDFMQLNCIHLEA,0.885 ± 0.88

row,Substance,amyloid nucleation score
1,DSADMLILILYAAVLLYTIF,-0.278 ± 0.69
2,DSAIWDKNFSLDMGSGFMHC,-0.125 ± 1.7
3,DSCLSYFAILYFRLGFTRMW,inactive
4,DSEDSNLSCLLYTQC,0.153 ± 0.16
5,DSFMAENMWGLFFDKSESPA,-0.517 ± 0.95
6,DSFQGRS,0.255 ± 0.47
7,DSIGVTH,-0.002 ± 0.41
8,DSKPVIILR,-0.516 ± 0.27
9,DSLGGSKSCGSKL,0.891 ± 0.97
10,DSMSRREQG,-0.437 ± 0.73
11,DSSHVRLWQYWIMWMLVVNA,1.06 ± 0.39
12,DSSRNGKF,-0.563 ± 0.64
13,DSVNRLLSCPINKMLWSNYS,0.233 ± 0.22
14,DTSVFWVKIYIFGSISHWAG,0.606 ± 1
15,DVKCAVTLVL,-0.055 ± 0.6
16,DVTLVNFIG,0.285 ± 0.48
17,DVYVACTSFDLELCICVMRL,0.237 ± 0.7
18,DVYVWGGCLVSIKVLWMAWG,0.117 ± 0.94
19,DWHGLTKVMITW,3.31 ± 0.11
20,DWNSNPPHSASAGLPLRFWK,inactive
21,DWVVFWIRSFILSPPRAHQN,0.025 ± 0.41
22,DYAGWPYLPSMHQATLQDAR,0.275 ± 1.2
23,DYCRLMAWLSL,0.315 ± 0.51
24,DYDGWQLPMCNNITMTWKVC,2.7 ± 0.12
25,DYFIKWFIYRPLTS,-0.504 ± 0.6

row,Substance,amyloid nucleation score
1,DYGVMWI,0.296 ± 0.41
2,DYYYSFMKTANR,-0.087 ± 0.3
3,ECCYWPREK,0.422 ± 0.32
4,ECSRGVVIIWDMHVGGIDEC,1.79 ± 0.41
5,ECVKTVTLVNYRVLRWSSVC,0.129 ± 0.35
6,EDMTLMLNNFSPILAIGWWT,1.25 ± 0.25
7,EDNRKIRRVMSIQS,0.063 ± 0.57
8,EDNWHLRVQ,0.088 ± 0.29
9,EEYNVNCTSFVGRFSRC,-0.008 ± 0.5
10,EFFRVMPGNT,3.68 ± 0.13
11,EFVLGGASRVELY,-0.624 ± 0.64
12,EFYSVTIGNWAMNRTHWRVN,0.461 ± 0.69
13,EFYYMKLRYRVRRKF,-0.716 ± 0.45
14,EGHWGFWPIGSFTCTSFLVY,0.86 ± 0.58
15,EGLLFYEYSSMCVEKDWIKN,-0.136 ± 0.43
16,EGLNNSLSSYTKDWAQVVLN,-0.079 ± 0.32
17,EGTSPHMHSIRFTLSQLPSF,0.236 ± 1.1
18,EGVNYIMKDVLLVDTKVAEN,-0.175 ± 0.66
19,EHLLCVSRCMLSSNLVTNCA,-0.113 ± 0.94
20,EHRLR,0.477 ± 0.59
21,EIMKCFNFTHMVEMKSMKRN,2.62 ± 0.087
22,EIQGNLNILSLLGLSRRSKG,0.016 ± 0.72
23,EIRKNTASMIMKLCIYIVGA,-0.007 ± 0.45
24,EIVACSWKKELIRAW,-0.209 ± 0.38
25,EIWWMVKVQLSVEYSSGNRL,1.16 ± 0.39

row,Substance,amyloid nucleation score
1,EKLNFSNLEGFRGFRLKGSR,-0.271 ± 1.4
2,ELGPRPHTFLEFAGICVGGM,-0.422 ± 1.4
3,ELKSPCNVSPIWSRSRQTST,0.216 ± 0.68
4,ELLACGIKRRVVKTGVRTAY,-0.407 ± 1.2
5,ELNPMFKTQHWLNSWNIWLL,2.47 ± 0.089
6,ELRSIDTWYPASGCML,-0.187 ± 0.29
7,ELSDTVFRRVCNLIVMVTPV,1.05 ± 0.4
8,ELVISMGRLWVG,2.02 ± 0.17
9,ELVLSSSWFRRNSYALCKLR,0.716 ± 1
10,EMAFISYH,0.4 ± 1.1
11,ENIALIYLECVFKVGSRCFE,0.198 ± 0.24
12,ENQPVPLQDLKGAV,-0.352 ± 1.2
13,ERLFELKCPNFCAELGSDS,0.24 ± 0.41
14,ERMGDSQGPKAGLWSFKYP,-0.226 ± 0.97
15,ERQLKEEY,0.06 ± 0.33
16,ESAFHASVGALRMHTSSRVC,1.09 ± 0.35
17,ESDPGCPVAVIKGPCT,0.225 ± 0.8
18,ESNMGNGSRGIDV,0.821 ± 1.1
19,ESTAQSEV,-0.237 ± 0.42
20,ESVIFFSCTYSSMMVSWTSR,0.382 ± 1.4
21,ETARLCRWSYK,2.22 ± 0.18
22,ETGSDEI,-0.55 ± 0.39
23,ETSSPLLEGG,0.554 ± 0.55
24,EVAMVYFKCVLFITSDSKQR,-0.823 ± 1.1
25,EVDFNSSFTWSHMSSKCRMF,-0.046 ± 0.54

row,Substance,amyloid nucleation score
1,EVGMHNMACADSSVCMRSVL,0.472 ± 0.6
2,EYAVIGKS,-0.186 ± 1
3,EYFRSTCRRATLSDPSMMHH,0.185 ± 0.35
4,EYGLVRTLPVFRRVRRKYVG,-0.666 ± 0.67
5,EYGVSLV,0.089 ± 0.53
6,EYIYNIAEWVD,-1.05 ± 0.79
7,EYLFCCVCADLFNTWDKSLG,7.29 ± 0.052
8,EYLSMNRLRERSYYLGNRTF,0.077 ± 0.69
9,EYNYLDDTCWLGQVGRWLWF,1.38 ± 0.28
10,EYRTSSEQTANTFILKPRWA,1.72 ± 0.4
11,EYVACVIEDFSVLNVVRQVD,-0.33 ± 0.21
12,FADIKYLSTFG,-0.045 ± 0.37
13,FAESSVVSFHLCRQMFASTA,-0.88 ± 0.52
14,FAHHLYINRMSRFIDARVTI,2.37 ± 0.13
15,FALKIVGVVPVAVGMTIDDW,0.052 ± 0.85
16,FAQFSAWRTTNGRYKHHFTL,-0.256 ± 0.52
17,FASRNISG,-0.054 ± 0.5
18,FASVDTRETSSGMGGISKTG,-0.742 ± 0.56
19,FAVSIVSFLRASVVDWVWYT,-0.209 ± 0.66
20,FCAEEGVTRLNPKL,-0.023 ± 0.47
21,FCDPVYMPSERFWNAYMCTL,1.19 ± 0.9
22,FCFILSNVFLGLWMI,-1.37 ± 2.7
23,FCLIFDGC,inactive
24,FCLNHHMVLYSIRRWNVFVY,-2.16 ± 2.7
25,FCMTTSVSSNTLV,-0.013 ± 0.94

row,Substance,amyloid nucleation score
1,FCNWANLYGTWLMLCVGSGR,0.712 ± 0.42
2,FCSRTRMTICVLCYIHLQGR,0.521 ± 0.29
3,FCVSQVFRDLS,-0.315 ± 0.37
4,FDADGHPLKTPLCMGLSCGG,-0.129 ± 1.6
5,FDFTNGRISFAFCNNSCCPY,2.46 ± 0.34
6,FDLTLCICCLRSECYYITPR,8.732 ± 0.049
7,FDLVYACANPTFGINVRTGR,2.67 ± 0.12
8,FDLWLVYVRLPGSHDLDLRA,0.61 ± 0.65
9,FDNAPMSDLG,0.405 ± 0.72
10,FDNLIVYVTVYFFLTYAPFV,1.41 ± 0.26
11,FDSLNAYSLSPSMVMKDSRG,0.17 ± 0.18
12,FDSVESRTAPTRMILLRTLF,inactive
13,FEHVPLFTTMPIEEFYRIVY,0.262 ± 0.28
14,FENFVASFLPNFGITLRKGQ,0.043 ± 0.24
15,FENIDLP,-0.364 ± 0.62
16,FETYFEHYWGCVTYSSMFWS,2.45 ± 0.14
17,FFALIYI,0.357 ± 0.36
18,FFFRKTSY,0.552 ± 0.87
19,FFGFMILNYKFSK,inactive
20,FFGVLNIPNFCVSMF,0.645 ± 0.69
21,FFHFTVSGMPGYSRSY,2.73 ± 0.17
22,FFLTDITTLHYQSRNRLFLT,-0.581 ± 0.23
23,FFNDPA,-0.311 ± 0.47
24,FFNRTKTHEVDADGALSTL,0.508 ± 0.88
25,FFRRDFFFYNSLGMH,0.233 ± 1.4

row,Substance,amyloid nucleation score
1,FFYSNALLWSWIVGYSCTRL,0.537 ± 0.44
2,FGASIGDGDFRVM,0.069 ± 0.53
3,FGCSSLCTLSTVEE,-1.21 ± 0.64
4,FGDGIDSNVSMVEN,inactive
5,FGHKCAIFGNWEF,-0.933 ± 0.84
6,FGHYFDTLKPYSRALWRVVS,-0.641 ± 0.61
7,FGLKYRSDGVPCPDYLARKY,0.702 ± 0.51
8,FGLRFAHAHLINWPWMLSGS,0.047 ± 0.76
9,FGNRDFSQSDYNSCVFATGS,2.2 ± 0.44
10,FGSLRHCFTFNCNPGMGVWV,2.53 ± 0.16
11,FGSSPRSDVVKHQNINEEVI,0.581 ± 0.61
12,FHLWHLIVYILALY,-0.955 ± 0.77
13,FHNRINKPTK,inactive
14,FHPAMVVICILWHKR,1.62 ± 0.37
15,FICERPGSRKTTLPTVTVIR,-0.499 ± 0.98
16,FIGPRN,-1.05 ± 1.2
17,FINRGAGPTLSRGQSRYNSA,0.011 ± 0.3
18,FIRIVRIYSLEFALYLGVFQ,4.51 ± 0.05
19,FIVKKFIKSNRLVLMRGSPL,0.669 ± 0.49
20,FIWIGRKRRGGICCDEWKYG,0.196 ± 1.6
21,FIWSLVGAQAQSTNRVHHLS,1.3 ± 0.67
22,FKCKSDAPWPWLHSL,1.37 ± 0.45

# Reference: the supplement of paper PMC12042874
